According to the nanobody polyreactivity screen of Harvey et al. (2022):

Assay: yeast display, Sf9 membrane polyspecificity reagent, FACS + sequencing; frameworks hold sequencing errors
Outline: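 Using colony PCR, genes from sorted yeast display clones were amplified, then sequenced on MiSeq at 2 × 250 and filtered by CDR length. The clones had been stained with 10% biotinylated, detergent-solubilized Sf9 membrane reagent for 1 hour at 4 °C and sorted by FACS into low and high (top ~1%) gates on anti-HA and streptavidin fluorescence. Polyreactivity labels come from the gate of origin.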

Row | Sequence | polyreactivity (PSR sort gate)
1 | QVQLVESGGGLVQAGGSLRLSCAASGITFRKYVMGWYRQAPGKERELVATITRNGGTTNYADSVKGRFTISRDNAKNTVYLQMNSLKPEDTAVYYCAAVRRDYDDVYTEYWGQGTQVTVSS | high polyreactivity
2 | QVQLVESVGGLVQAGGSLRLTCAASGIILHDNTMGWYRQAPGKEREVVAAITSDGSTNYADSVKGRFTISRDNAKNTVYLQMNSLKPEDTAVYYCNTDDGPYTEFDYWGQGTQVTVSS | low polyreactivity
3 | QVQLVESGGGLVQAVGSLRLSCAASGSTFFWYAMGWYRQAPGKERELVAAISKTGGSTYYADSVKGRFTISRDNAKNTVYLQMNSLKPEDTAVYYCAKPLSSFSRTSSVWPWYDYWGQGTQVTVSS | low polyreactivity
4 | QVQLVESGGGLVQAGGSLRLSCAASGSIFVTYAMGWYRQAPGKERELVARITSGGSTYYADSVKGRFTISRDNAKNTVYLQMNRQKPEDTAVYYCAARRWLRYDLDYWGQGTQVTVSS | low polyreactivity
5 | QVQLLETGGGLVQAGGSLRLSCAASGSIFSRNDMGWYRPAPGKERELVAAITWSGGSTYYADSVKGRFTISRDNAKNTVYLQMNSLKPEDTAVYYCATRYTRVYDCWGQGTLVTVSS | high polyreactivity
6 | QVQLVESGGGLVQAGGSLRLSCAASGSIFLWNAMGWYRQAPGKERELVAAISSSGGSTYYADSVKGRFTISRDNAKNTVYLQMNSLKPEDTAVYYCAAVSRSYYNSYNYWGQGTQVTVSS | high polyreactivity
7 | QVQLVESGGGLVQAGGSLRLSCAASGYIFRIYAMGWYRQAPGKERELVARISSGGGTNYADSVKGRFTISRDNAKNTVYLQMNSLKPEDTAVYYCNAGYGYQRGGVFFYRMGYWGQGTQVTVSS | high polyreactivity
8 | QVQLVESGGGLVQAGGSLRLSCAASGSIFNYYAMGWYRQAPGKERELVAAITSADGRTFYADSVKGRFTISRDNANNTVYLQMNSLKPDDTAVYYCAAERTSRYSTYEYWGQGTQVTVSS | low polyreactivity
9 | QVQLVESGGGLDQAGGSLRLSCAASGFIFPVYAMGWSRPAPGKERELVAAIRRGGSTNYADSVKGRFTISRDNAKNTVYVQMNSLKPEDTAVYYCAKTIGLKHEDEYWGQGTQVTVSS | low polyreactivity
10 | QVQLVESGGGLVQAGGSLRLSCAASGSIFSVYVMGWYRPAPGKERELVATISSGGGTYYADSVKGRFTISRDNAKNTVYLQMNSLKPEDTAVYYCYADWDDWKGDYWGQGTQVTVSS | low polyreactivity
11 | QVQLVESGGGLVQAGGSLRLRCAASGRTFYYAMGWYRQAPGKERYADSVKGRFTISRDNAKNTVYLQMNSLKPEDTAVYYCAAKVPDPPSLDESDYWGQVTQVTVSS | low polyreactivity
12 | QVQLVESGGGLVQAGGSLRLSCAASGSTFTYYAMGWYRQAPGKERELVAAISRRGGSTYYADSVKGRFTISRDNAKNTVYLQMNSLKPEDTAVYYCNVVIYSYGINGRYDYWGQGTQVTVSS | high polyreactivity
13 | QVQLEESAGGLVQAGGSLRLSCAASGFTFRRYARGWYRQAPGKERELVAAISSRGGSTYYADSVKGRFTISRDNAKNTGYLQMKSLKPEDTAVYYCNRDAWGGTDLLGYNYWGHGTQVTVSS | high polyreactivity
14 | QVQLVESAGGLVQAGGSLRLSCAASGITFWYYTMGWYRQAPGKERELVAAINGRGGSTYYADSVKGRFTISRDNAKNTVYLQMNSLKPEDTAVYYCNAVGIWFQIRLIVPYDYWGQGTQVTVSS | low polyreactivity
15 | QVQLVESGGGLVQAGGSLRLRGAASGGIISSYVLGWYRQAPGKERELVAAISRSGGSTYYADSVKGRFTISRDNAKNTVNLQMNSLKPEDTAVYYCAAVLQTRYNYWGQGTQVTVSS | high polyreactivity
16 | QVQLVESGGGLVQAGGSLRLSCAASGSNFWAYTMGWYRQAPGKERELVAVITDSTGSTYYADSVKGRFTISRDNAMNTVFLQMNSLKPEDTAVYYCAARLWIGYLKYDYWGQGTQVTVSS | high polyreactivity
17 | QVQRVESGGGLVQAGGSLRLSCAASGSIFWRNAMGWSRQAPGKERELVAAITSGGSTDYADSVKGGFRISRDTAKNTVYLQIHSLKPEDPAVYYCAAVTWSGWDGYYYWGQGTQVTVSS | low polyreactivity
18 | QVQLVESGGGLVQAGGSLRLSCAASGSTFYNYVMGWYRQAPGKERELVAAISSSGGNTYYADSVKGRFTISRDNAKNTVYLQMNSLKPEDTAVYYCAARERHPSGGKYDYWGQGTQVTVSS | high polyreactivity
19 | QVQLVESGRGLVQAGGSLRISCAASGRTFRHNVMGWYRQAAGQERELVAAITWGDASTYYADSVKGRFTISRDNAKNTVYLQMNSLKPEDTAVYYCAASDYRRSYDYWGQGTQVTVSW | low polyreactivity
20 | QGQLVESGGGLVQAGGSLRLSCAASGLIFTYYDMGWYRQAPGKERELVAAISRRGTSTYYADSVKGRFTISRDNAKNTVYFQMNSLKPEDTEVYYCAADYYYFDSQQGMDYWGQGTQVTVSS | high polyreactivity
21 | QVQLVESGGGLVQAGGSLRLTCAASGYIFLQYAMGWYRPAPGKERELVAAITYNGGITYYADSVKGRFTISRDNAKNTVYLQRNSLKPEDTAVYYCAADKNQDVSYVGFDYWGQGTQVTVSS | low polyreactivity
